Substitutions are numbered along the chain they refer to. Names may count otherwise.
Key:
[1] = molecular target: T1, alcohol dehydrogenase KpADH mutant M1 (V84I; parent SEQ ID No. 1) (Vanderwaltozyma polyspora, UniProt A7TM80, V84I); assay: Kinetic analysis of KpADH mutant M1 toward diol co-substrates; assay type: biochemical
T1 sequence (A7TM80 1-342 V84I): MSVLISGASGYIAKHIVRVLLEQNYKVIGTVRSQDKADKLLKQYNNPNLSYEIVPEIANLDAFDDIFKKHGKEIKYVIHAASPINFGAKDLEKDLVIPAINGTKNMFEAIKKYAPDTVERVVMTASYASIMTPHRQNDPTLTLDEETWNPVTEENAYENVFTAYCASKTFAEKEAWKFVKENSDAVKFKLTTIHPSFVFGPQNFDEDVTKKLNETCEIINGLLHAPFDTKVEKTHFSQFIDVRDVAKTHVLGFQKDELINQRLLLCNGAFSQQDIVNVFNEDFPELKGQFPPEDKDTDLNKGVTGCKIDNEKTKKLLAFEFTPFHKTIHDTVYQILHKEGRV
Experimental: (§1) M1 is obtained by mutating valine at position 84 into isoleucine in alcohol dehydrogenase having an original amino acid sequence as set forth in SEQ ID No. 1;
(§2) Changes in absorbance at 340 nm are measured.
(§3) The enzyme activity is calculated using the following formula: Enzyme activity (U)=EW×V×10^3/(6220×I);
(§4) In the formula, EW is the change in absorbance at 340 nm in 1 min; V is the volume of the reaction solution in mL; 6220 is the molar extinction coefficient of NAD(P)H in L/(mol·cm); I is optical distance in cm.
(§5) One unit of activity (U) corresponds to the amount of enzyme required for the catalytic oxidation of 1 μmol NADP^+ per minute under the above conditions.
(§6) Kinetic measurement is conducted according to the enzyme activity assay, with 10 μL of alcohol substrates of different concentrations, 1 mM NADP^+, 10 μL of enzymes of appropriate concentrations, 170 μL of glycine-sodium hydroxide buffer at pH 9.5, with each sample in triplicate. […] The calculation formulas are as follows: […]
(§7) The Vmax and Km values can be calculated from the intercepts of the double reciprocal plot on the X and Y axes;
(§8) The kcat value can be further calculated according to the formula.
(§9) The activity of KpADH under different substrate concentrations and cofactor concentrations was measured, and a double reciprocal plot was made according to the reciprocals of the activity and substrate concentration. The kinetic parameters were calculated.
(§10) The activity of KpADH under different substrate concentrations and cofactor concentrations was measured, and a double reciprocal plots were made according to the reciprocals of the activity and substrate concentration. The kinetic parameters were calculated.

[2] = molecular target: T2, alcohol dehydrogenase KpADH mutant M2 (Y127C; parent SEQ ID No. 1) (Vanderwaltozyma polyspora, UniProt A7TM80, Y127C); assay: Kinetic analysis of KpADH mutant M2 toward diol co-substrates; assay type: biochemical
T2 sequence (A7TM80 1-342 Y127C): T1 sequence (A7TM80 1-342 V84I) with I84V, Y127C
Experimental: (§11) M2 is obtained by mutating tyrosine at position 127 into cysteine in alcohol dehydrogenase having an original amino acid sequence as set forth in SEQ ID No. 1;
as §2, §3, §4
One unit of activity (U) corresponds to the amount of enzyme required for the catalytic oxidation of 1 μmol NADP^+ per minute under the above conditions. […]
as §7, §8, §9, §10

[3] = molecular target: T3, alcohol dehydrogenase KpADH mutant M5 (V84I/Y127M; parent SEQ ID No. 1) (Vanderwaltozyma polyspora, UniProt A7TM80, V84I/Y127M); assay: Kinetic analysis of KpADH mutant M5 toward diol co-substrates; assay type: biochemical; details: mutant M5 relative to wild-type KpADH
T3 sequence (A7TM80 1-342 V84I/Y127M): T1 sequence (A7TM80 1-342 V84I) with Y127M
Experimental: (§12) the M5 is obtained by mutating valine at position 84 into isoleucine and tyrosine at position 127 into methionine in alcohol dehydrogenase having an original amino acid sequence as set forth in SEQ ID No. 1.
as §2, §3, §4, §5, §6, §7, §8, §9, §10

[4] = molecular target: T4, alcohol dehydrogenase KpADH mutant M3 (Y127M; parent SEQ ID No. 1) (Vanderwaltozyma polyspora, UniProt A7TM80, Y127M); assay: Kinetic analysis of KpADH mutant M3 toward diol co-substrates; assay type: biochemical; details: mutant M3
T4 sequence (A7TM80 1-342 Y127M): T1 sequence (A7TM80 1-342 V84I) with I84V, Y127M
Experimental: (§13) M3 is obtained by mutating tyrosine at position 127 into methionine in alcohol dehydrogenase having an original amino acid sequence as set forth in SEQ ID No. 1;
as §2, §3, §4, §5, §6, §7, §8, §9, §10

[5] = substrate: OCCCCCO; assay: Kinetic analysis of wild-type KpADH toward diol co-substrates; assay type: biochemical; details: other: wild-type KpADH, 1 mM NADP+, Gly-NaOH pH 9.5, 30° C.
Experimental: as §2, §3, §4, §5, §6, §7, §8, §9, §10

[6] = substrate: OCCCCO; assay: purified protein, by the assay type; details: other: wild-type KpADH, 1 mM NADP+, Gly-NaOH pH 9.5, 30° C.
[7] = substrate: OCCCCCO; assay: Kinetic analysis of KpADH mutant M5 toward diol co-substrates; assay type: biochemical; details: other: mutant M5, 1 mM NADP+, Gly-NaOH pH 9.5, 30° C.
Experimental: as §12, §2, §3, §4, §5, §6, §7, §8, §9, §10

[8] = substrate: OCCCCCCO; assay: as above; assay type: biochemical; details: other: mutant M5, 1 mM NADP+, Gly-NaOH pH 9.5, 30° C.
Experimental: as §12, §2, §3, §4, §5, §6, §7, §8, §9, §10

[9] = substrate: OCCCCCO; assay: Kinetic analysis of KpADH mutant M4 toward diol co-substrates; assay type: biochemical; details: other: mutant M4, 1 mM NADP+, Gly-NaOH pH 9.5, 30° C.
Experimental: (§14) M4 is obtained by mutating valine at position 84 into isoleucine and tyrosine at position 127 into cysteine in alcohol dehydrogenase having an original amino acid sequence as set forth in SEQ ID No. 1;
as §2, §3, §4, §5, §6, §7, §8, §9, §10

[10] = substrate: OCCCCCCO; assay: as above; assay type: biochemical; details: other: mutant M4, 1 mM NADP+, Gly-NaOH pH 9.5, 30° C.
Experimental: as §14, §2, §3, §4, §5, §6, §7, §8, §9, §10

[11] = substrate: OCCCCCO; assay: Kinetic analysis of KpADH mutant M1 toward diol co-substrates; assay type: biochemical; details: other: mutant M1, 1 mM NADP+, Gly-NaOH pH 9.5, 30° C.
Experimental: as §1, §2, §3, §4, §5, §6, §7, §8, §9, §10

[12] = substrate: OCCCCCCO; assay: as above; assay type: biochemical; details: other: mutant M1, 1 mM NADP+, Gly-NaOH pH 9.5, 30° C.
Experimental: as §1, §2, §3, §4, §5, §6, §7, §8, §9, §10

[13] = substrate: OCCCCCO; assay: Kinetic analysis of KpADH mutant M3 toward diol co-substrates; assay type: biochemical; details: other: mutant M3, 1 mM NADP+, Gly-NaOH pH 9.5, 30° C.
Experimental: as §13, §2, §3, §4, §5, §6, §7, §8, §9, §10

[14] = substrate: OCCCCCCO; assay: as above; assay type: biochemical; details: other: mutant M3, 1 mM NADP+, Gly-NaOH pH 9.5, 30° C.
Experimental: as §13, §2, §3, §4, §5, §6, §7, §8, §9, §10

[15] = substrate: OCCCCCO; assay: Kinetic analysis of KpADH mutant M2 toward diol co-substrates; assay type: biochemical; details: other: mutant M2, 1 mM NADP+, Gly-NaOH pH 9.5, 30° C.
Experimental: as §11, §2, §3, §4, §5, §6, §7, §8, §9, §10

[16] = substrate: OCCCCCCO; assay: as above; assay type: biochemical; details: other: mutant M2, 1 mM NADP+, Gly-NaOH pH 9.5, 30° C.
Experimental: as §11, §2, §3, §4, §5, §6, §7, §8, §9, §10

[17] = mutant M1, 1 mM NADP+, Gly-NaOH pH 9.5, 30° C.
[18] = mutant M1 relative to wild-type KpADH

With `OCCCCO` [1,4-butanediol] the kcat [1, 17] was 1.26 ± 0.0217 s⁻¹, the kcat/KM [1, 17] was 10.3 M⁻¹ s⁻¹ and the “kcat value, times that of wild-type KpADH” value [1, 18] was 7.3 times. The “kcat/Km value, times that of wild-type KpADH” value [1, 18] was 4.53 times, the catalytic rates kcat [2] was 27.8 mM and the “kcat/Km value, times that of wild-type KpADH” value [3] was 14.7 times. It also gave a catalytic rates kcat [4] of 16.8 mM.

B1: alcohol dehydrogenase KpADH, wild type, SEQ ID No. 1 (Vanderwaltozyma polyspora DSM 70294) (protein)
chain: T1 sequence (A7TM80 1-342 V84I) with I84V
Molecule B1 has a Km [5] of 74.4 ± 2.2 mM, a kcat [5] of 0.928 ± 0.0167 s⁻¹ and a kcat/Km [5] of 12.5 M⁻¹ s⁻¹. For the same molecule, the Km [6] was 75.6 ± 0.4 mM, the kcat [6] was 0.173 s⁻¹ and the kcat/Km [6] was 2.28 M⁻¹ s⁻¹.

B2: alcohol dehydrogenase KpADH mutant M5 (V84I/Y127M; parent SEQ ID No. 1) (Vanderwaltozyma polyspora DSM 70294; V84I/Y127M) (protein)
chain: T1 sequence (A7TM80 1-342 V84I) with Y127M
With B2 the Km [7] was 8.21 ± 0.22 mM, the kcat [7] was 0.322 ± 0.015 s⁻¹ and the kcat/Km [7] was 39.22 M⁻¹ s⁻¹. For the same molecule, the Km [8] was 6.52 ± 1.0 mM, the kcat [8] was 1.25 ± 0.035 s⁻¹ and the kcat/Km [8] was 200.53 M⁻¹ s⁻¹.

B3: alcohol dehydrogenase KpADH mutant M4 (V84I/Y127C; parent SEQ ID No. 1) (Vanderwaltozyma polyspora DSM 70294; V84I/Y127C) (protein)
chain: T1 sequence (A7TM80 1-342 V84I) with Y127C
B3 gave a Km [9] of 16.3 ± 0.8 mM, a kcat [9] of 0.413 ± 0.0183 s⁻¹ and a kcat/Km [9] of 25.35 M⁻¹ s⁻¹. For the same molecule, the Km [10] was 12.9 ± 1.3 mM, the kcat [10] was 1.64 ± 0.0417 s⁻¹ and the kcat/Km [10] was 127.2 M⁻¹ s⁻¹.

B4: alcohol dehydrogenase KpADH mutant M1 (V84I; parent SEQ ID No. 1) (Vanderwaltozyma polyspora DSM 70294; V84I) (protein)
chain: T1 sequence (A7TM80 1-342 V84I)
For B4, the Km [11] was 42.5 ± 1.5 mM, the kcat [11] was 0.852 ± 0.013 s⁻¹ and the kcat/Km [11] was 20.03 M⁻¹ s⁻¹. The Km [12] was 12.3 ± 0.7 mM, the kcat [12] was 1.08 ± 0.0283 s⁻¹ and the kcat/Km [12] was 87.53 M⁻¹ s⁻¹.

B5: alcohol dehydrogenase KpADH mutant M3 (Y127M; parent SEQ ID No. 1) (Vanderwaltozyma polyspora DSM 70294; Y127M) (protein)
chain: T1 sequence (A7TM80 1-342 V84I) with I84V, Y127M
B5 gave a Km [13] of 14.3 ± 0.9 mM, a kcat [13] of 0.777 ± 0.0283 s⁻¹ and a kcat/Km [13] of 54.48 M⁻¹ s⁻¹. It also gave a Km [14] of 6.48 ± 0.45 mM, a kcat [14] of 0.658 ± 0.0317 s⁻¹ and a kcat/Km [14] of 101.6 M⁻¹ s⁻¹.

B6: alcohol dehydrogenase KpADH mutant M2 (Y127C; parent SEQ ID No. 1) (Vanderwaltozyma polyspora DSM 70294; Y127C) (protein)
chain: T1 sequence (A7TM80 1-342 V84I) with I84V, Y127C
Molecule B6 has a Km [15] of 63.5 ± 0.1 mM, a kcat [15] of 0.418 ± 0.015 s⁻¹ and a kcat/Km [15] of 6.6 M⁻¹ s⁻¹. For the same molecule, the Km [16] was 31.8 ± 1.7 mM, the kcat [16] was 0.603 ± 0.0367 s⁻¹ and the kcat/Km [16] was 18.97 M⁻¹ s⁻¹.

Source: patent US11162124B2, “Alcohol dehydrogenase mutant and application thereof in cofactor regeneration” (Jiangnan University, priority 2018, dated 2021)
